Reference: patent publication US20200199231A1 (Genmab, published 2020)
Like-named read-outs stand apart in the source and are kept apart here.

Tests used:
human CD20 [1] = target: T1, human CD20 (human, UniProt P11836 1-297); experiment: flow cytometry on Daudi cells (CD20-positive, CD3-negative); PE-conjugated goat anti-human IgG F(ab')2; median FI (PE)
T1 construct: whole, on cells; On Daudi and other human B cell lines, on human B cells in blood, or transiently expressed in HEK293F cells (construct pEE12.4CD20HS-GA); also called wild type CD20; WT CD20
T1 sequence (looked up): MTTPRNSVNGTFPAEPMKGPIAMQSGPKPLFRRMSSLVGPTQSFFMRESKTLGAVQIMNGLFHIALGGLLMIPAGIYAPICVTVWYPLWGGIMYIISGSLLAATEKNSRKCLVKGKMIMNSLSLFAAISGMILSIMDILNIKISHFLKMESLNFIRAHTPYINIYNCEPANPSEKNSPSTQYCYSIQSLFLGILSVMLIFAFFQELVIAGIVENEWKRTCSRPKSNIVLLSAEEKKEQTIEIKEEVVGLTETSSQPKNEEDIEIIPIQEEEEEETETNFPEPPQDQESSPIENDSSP
Protocol: (§1) In addition to the non-activating mutations, L234F, L235E, D265A, on both arms, the bispecific antibody contained an F405L mutation on one arm and a K409R mutation on the other arm.
(§2) Cells (1×10⁵ cells/well) were incubated in polystyrene 96-well round-bottom plates (Greiner bio-one, cat. no. 650101) with serial dilutions of antibodies (range 0.041 to 30 μg/mL in 3-fold dilution steps [A-E] and 0.00061 to 10 μg/mL in 4-fold dilution steps [F-I]) in 100 μL PBS/0.1% BSA/0.02% azide (from here designated as staining buffer) at 4° C. for 30 min.
(§3) After washing twice in staining buffer, cells were incubated in 50 μL secondary antibody at 4° C. for 30 min. As a secondary antibody, R-Phycoerythrin (PE)-conjugated goat-anti-human IgG F(ab′)₂ (cat. no. 109-116-098, Jackson ImmunoResearch Laboratories, Inc., West Grove, Pa.) diluted 1:200 in staining buffer, was used for all experiments. Next, cells were washed twice in staining buffer, re-suspended in 30 μL staining buffer and analyzed on an iQue screener (Intellicyt Corporation, USA) (for FIG. 1A-E) or re-suspended in 100 μL staining buffer and analyzed on a FACSCANTOII (BD Biosciences) (FIG. 1F-I). Binding curves were analyzed using non-linear regression (sigmoidal dose-response with variable slope) using GraphPad Prism V75.04 software (GraphPad Software, San Diego, Calif., USA).

human CD20 [2] = target: T1, human CD20; experiment: as above; remark: listed apart in the source
Protocol: as §1, §2, §3

B1: IgG1-7D8-FEAR (antibody, V domains shown)
VH: EVQLVESGGGLVQPDRSLRLSCAASGFTFHDYAMHWVRQAPGKGLEWVSTISWNSGTIGYADSVKGRFTISRDNAKNSLYLQMNSLRAEDTALYYCAKDIQYGNYYYGMDVWGQGTTVTVSS
VL: EIVLTQSPATLSLSPGERATLSCRASQSVSSYLAWYQQKPGQAPRLLIYDASNRATGIPARFSGSGSGTDFTLTISSLEPEDFAVYYCQQRSNWPITFGQGTRLEIK
For B1, the “EC50 (read off the curve)” value (human CD20 [1]) was ~0.3 µg/mL and the “EC50 (read off the curve)” value (human CD20 [2]) was ~0.3 µg/mL.
